In the assay the target is STX17-Flag (UniProt P56962). Briefly: co-IP.

Take “STING-HA C148A (from UniProt Q86WV6 1-379) (natural protein)”: the reduction of the co-immunoprecipitated interaction against STING WT was found to be 50%.

Source of the values: publication PMC9082627.
